Experimental data reported in the supplement of paper PMC10126150.
± gives the standard deviation of the averaged measurements.

Tested on: ATP
Test: switch fluorescence ratio, 500 uM ATP over buffer (Cy3 cluster intensity, sum of 5 cycles each) (fold (ratio)); higher = stronger signal-on switching upon ATP binding; sequences stand for … in TCGTCGGCAGCGTCAGATGTGTATAAGAGACAGTTTTTTTTTTTTTTTTTTTTTTTTT…TC
Conditions: aptamer strand: ATP DNA aptamer (quencher-CACCTGGGGGAGTATTGCGGAGGAAGG + anchor), 100 nM annealed; ATP concentration: 500 uM
Outline: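 Exposure to 500 uM ATP lasted 15 min at 22 °C before imaging, and a selection-buffer image was taken beforehand, for Cy3-labelled switching-strand clusters on a modified Illumina MiSeq flow-cell annealed to 100 nM quencher-labelled ATP aptamer. Five buffer/ATP cycles were run with NaOH stripping and re-annealing between them. The fluorescence ratio per cluster is summed target-cycle over summed buffer-cycle Cy3 intensity, averaged per switch-domain sequence. Clusters outside 100-1000 RFU were excluded.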

| Sequence | switch fluorescence ratio |
| --- | --- |
| GGTACGATGG | 1.01 ± 0.015 |
| CGGTGCTTGT | 1.02 ± 0.037 |
| GGAGGGCGGG | 1.02 ± 0.021 |
| TGGGGTAGC | 0.9979 ± 0.0088 |
| AGTGGGCTTT | 0.996 ± 0.037 |
| CCCTGTTCGC | 1.03 ± 0.041 |
| CTGAGGGGCT | 0.982 ± 0.02 |
| ACTTCTAAAC | 1.07 ± 0.044 |
| ATAGGATATA | 1.03 ± 0.018 |
| TGTCAAAGAT | 0.9772 ± 0.0044 |
| CCTAGGGTGG | 1.03 ± 0.069 |
| TTATCTGGGC | 0.9757 ± 0.0037 |
| GGTGTTTCGC | 0.994 ± 0.0095 |
| GGAATTACAG | 1.02 ± 0.046 |
| TGGTTTCCCA | 0.9738 ± 0.0042 |
| TTTGTGGGCG | 0.932 ± 0.021 |
| ATTGTATTTA | 0.9842 ± 0.0079 |
| GGGAAGGCCA | 0.973 ± 0.024 |
| TTGGGTGAAC | 1.002 ± 0.0088 |
| ACGGACATCT | 1.28 ± 0.022 |
| ATTGGGCGCT | 0.99269 ± 2.5e-05 |
| GATCGGATTA | 0.999 ± 0.024 |
| TCGTTAATCA | 0.9835 ± 0.0088 |
| AACGGACAAA | 1.2 ± 0.052 |
| CAAGCGATGG | 1.63 ± 0.065 |

| Sequence | switch fluorescence ratio |
| --- | --- |
| AAAACGGAGA | 1.02 ± 0.014 |
| GGTGGAAAAG | 1 ± 0.023 |
| GAATTTTTGA | 0.991 ± 0.021 |
| AAGGGTTTTT | 0.994 ± 0.025 |
| CGGGGGGCAT | 0.994 ± 0.022 |
| TAGGATTTAG | 0.994 ± 0.039 |
| AGAGTTCTCG | 0.978 ± 0.012 |
| TAACGGGGCA | 0.9842 ± 0.003 |
| GCAGGGGTTG | 1.03 ± 0.071 |
| GGGGCAGGCT | 0.886 ± 0.18 |
| GGCTTTATTC | 0.984 ± 0.044 |
| TTGGGTTTTC | 1.03 ± 0.065 |
| AGGACAGGGT | 0.972 ± 0.011 |
| CCAGTGGTTG | 0.9817 ± 0.0056 |
| CGGCAATCCT | 3.99 ± 0.15 |
| TTTGTGGGGT | 1.01 ± 0.047 |
| ATGATGATGG | 0.9858 ± 0.0096 |
| CTCCATATTA | 1.057 ± 0.0068 |
| TGATTCTTTT | 0.974 ± 0.037 |
| TGGGGGAAGC | 0.984 ± 0.026 |
| CCCTGGACGA | 1.07 ± 0.016 |
| TAAGAGTGCT | 0.9726 ± 0.0043 |
| TCTGTTATCA | 1 ± 0.029 |
| TAAAAGTCCG | 1.06 ± 0.022 |
| CGACGACAGG | 1.35 ± 0.024 |

| Sequence | switch fluorescence ratio |
| --- | --- |
| GCAGGGAGTT | 0.966 ± 0.029 |
| AGGACGGAAT | 1.091 ± 0.0016 |
| TGGGGGTGTG | 1.04 ± 0.082 |
| ATTTCAGTAA | 1.05 ± 0.027 |
| TATATTGAAC | 1.022 ± 0.0028 |
| TATTGGGTGG | 0.9919 ± 0.0053 |
| TCAATACTTC | 1.88 ± 0.19 |
| TACAGATTGG | 0.979 ± 0.025 |
| ATGAAAATTA | 0.975 ± 0.025 |
| TACTTTTTAG | 1.02 ± 0.029 |
| GCATAAGAAA | 1.03 ± 0.018 |
| TTCAGAGCTT | 1 ± 0.035 |
| ATCGTGGGGA | 1.012 ± 0.0075 |
| CAGAGAAAGG | 0.997 ± 0.014 |
| TTCGGTGACC | 1.02 ± 0.014 |
| AGAACTGGCT | 0.988 ± 0.011 |
| TGTTGTTACC | 1.04 ± 0.022 |
| TTAAAGCTTT | 1.09 ± 0.22 |
| GTTGTGTCTT | 0.991 ± 0.041 |
| CGATTGGGGT | 1.02 ± 0.034 |
| TGGGTTTAGG | 1.02 ± 0.025 |
| TAATCCTCGT | 1.005 ± 0.0058 |
| AATAGATTCG | 0.982 ± 0.017 |
| TGGTTCTAG | 0.989 ± 0.024 |
| GCTAACGGCA | 0.994 ± 0.03 |

| Sequence | switch fluorescence ratio |
| --- | --- |
| AGAGTTCATA | 1.04 ± 0.027 |
| TTTGGGTAGG | 1.03 ± 0.062 |
| GTTTGATCGG | 0.97 ± 0.013 |
| AGTTGGGCGG | 1.02 ± 0.021 |
| AAGTTGATAA | 1 ± 0.035 |
| TTTAGGGCGG | 0.994 ± 0.017 |
| GAGACTGATG | 1.05 ± 0.14 |
| TTGCATGGAA | 1.01 ± 0.0049 |
| TTATGGGTCT | 1 ± 0.036 |
| GCAAGGGGTG | 1.1 ± 0.065 |
| TTGGTTGACA | 0.9641 ± 0.0094 |
| CAGTTTGATG | 1.003 ± 0.0083 |
| TGGAGTAGGA | 1.04 ± 0.051 |
| ACTACGTCGA | 2.01 ± 0.21 |
| AAAATTATC | 0.997 ± 0.019 |
| GTTACTGGAC | 1.12 ± 0.14 |
| TTAAACTTTT | 1.04 ± 0.031 |
| GGACTCAGAA | 0.9867 ± 0.0045 |
| TTTTGCGGTT | 0.998 ± 0.038 |
| TATTTTACAG | 1.02 ± 0.02 |
| TGTAAGTCTT | 0.966 ± 0.032 |
| TAGCGCTGCC | 0.984 ± 0.012 |
| GTTTTGGGAA | 1.02 ± 0.026 |
| AAGCGGTCGC | 0.99 ± 0.017 |
| AGGTAGGCGC | 0.98 ± 0.041 |

| Sequence | switch fluorescence ratio |
| --- | --- |
| ATATGGATGG | 0.986 ± 0.025 |
| AAACTTAAGA | 0.996 ± 0.049 |
| AGTTGGGAAC | 1.01 ± 0.015 |
| CCTTTGGTTA | 1.03 ± 0.028 |
| AGGGGGCTGC | 0.995 ± 0.023 |
| GATGTTGATG | 0.976 ± 0.014 |
| CGGGTCGGCG | 1.01 ± 0.049 |
| AAAATGCGTT | 1.02 ± 0.029 |
| TAGGATAGTG | 0.978 ± 0.043 |
| ACACTAATCT | 1.16 ± 0.15 |
| GAGACTTGTT | 0.997 ± 0.042 |
| ACCATTCAAA | 1 ± 0.021 |
| TCTGGGGCGC | 0.984 ± 0.015 |
| AGTTAACTCA | 1.013 ± 0.0056 |
| ATGATTGGCC | 0.9882 ± 0.0086 |
| CATAAGATGT | 1 ± 0.021 |
| TAGCTATTGT | 0.984 ± 0.012 |
| TCGTGTATGA | 1.036 ± 0.0059 |
| GCAGCAAGCG | 1.64 ± 0.028 |
| CGGACTGGTT | 1.005 ± 0.0057 |
| CGGACGGCTC | 1.093 ± 0.01 |
| TTTTCGGTGA | 0.9713 ± 0.0057 |
| AGTCTGCTCG | 1 ± 0.018 |
| GGAGAGGGTT | 1.022 ± 0.0044 |
| CGGAGGGGAT | 1.062 ± 0.005 |

| Sequence | switch fluorescence ratio |
| --- | --- |
| TTTCAGTTCT | 0.9773 ± 0.005 |
| AACAGGGGCT | 1.09 ± 0.12 |
| TTGGGCTTGA | 1.01 ± 0.056 |
| GAACGTTGGG | 0.993 ± 0.033 |
| TATACTATTG | 1.01 ± 0.048 |
| ACCGCTTGTA | 1.05 ± 0.052 |
| TTGGATGTCT | 1.008 ± 0.0072 |
| TCACGTTTTT | 1.01 ± 0.031 |
| AAGATTTAGG | 1.01 ± 0.063 |
| ATAAATAAAA | 0.984 ± 0.036 |
| ATGATTAACT | 0.986 ± 0.036 |
| TATTATGAGA | 0.983 ± 0.026 |
| TAAGGACGAC | 1.02 ± 0.026 |
| TTCGACGAGG | 0.996 ± 0.022 |
| AGTTAGGACA | 1 ± 0.031 |
| GGGGTATGAG | 0.972 ± 0.029 |
| CCAGGCTATT | 1.04 ± 0.026 |
| TCATCTAGTG | 1 ± 0.049 |
| GCGGGTCGGG | 0.969 ± 0.054 |
| AAAGTTTGAC | 1 ± 0.035 |
| ATCAGGCGGA | 1 ± 0.045 |
| ACTTGATCCC | 1.02 ± 0.043 |
| TTTATTAGTA | 0.983 ± 0.024 |
| TTAGGAACTC | 0.982 ± 0.014 |
| TATTTAAAAA | 1.01 ± 0.035 |

| Sequence | switch fluorescence ratio |
| --- | --- |
| TGTGGGGATG | 1.01 ± 0.02 |
| TGGGAGAAAC | 1.09 ± 0.091 |
| AATTGGTGCA | 0.96 ± 0.011 |
| TAGGATTGGG | 0.9894 ± 0.0053 |
| GATTGACAGG | 1.04 ± 0.03 |
| AGGTATTTTT | 1.009 ± 0.0042 |
| TTGAGTGAAT | 1 ± 0.042 |
| ATATATTGTA | 1.001 ± 0.0059 |
| GTTTGGTCGG | 1.04 ± 0.035 |
| AAAAGGGGCA | 1.04 ± 0.051 |
| CTTAAATGAA | 1.02 ± 0.036 |
| AAGGCACCTG | 1.03 ± 0.042 |
| GTTTGAATTG | 0.9879 ± 0.0049 |
| TTGCTGAGCC | 0.96 ± 0.024 |
| GGTAACATTT | 1.061 ± 0.0053 |
| GCCAGTTGTC | 0.998 ± 0.041 |
| ATTGTGGGAG | 0.972 ± 0.017 |
| TTTGAGGCCT | 0.99 ± 0.025 |
| AGGGCTTGAA | 0.991 ± 0.018 |
| CCGTTTTTGG | 0.993 ± 0.016 |
| AATGGGGAAG | 0.985 ± 0.018 |
| ATGTGGCTGA | 1.021 ± 0.0038 |
| TACTTCAAGG | 1.02 ± 0.03 |
| AGGGGAATAG | 1.01 ± 0.016 |
| AAGATGTAAT | 1.01 ± 0.0079 |

| Sequence | switch fluorescence ratio |
| --- | --- |
| CGGAGAGTAG | 1.03 ± 0.018 |
| AGGAGGCTTC | 0.983 ± 0.029 |
| TGTGGGGGGG | 1.01 ± 0.045 |
| TGAGCCTCGG | 0.965 ± 0.032 |
| AGCTTAAGGA | 1.03 ± 0.035 |
| GGGGGTATCG | 0.967 ± 0.021 |
| AATGTAATCA | 0.997 ± 0.024 |
| AGTAGGGGT | 1.02 ± 0.054 |
| GAGTTCGGGG | 0.987 ± 0.014 |
| TAACTGTTTT | 1.06 ± 0.056 |
| TTTTTGGACT | 0.983 ± 0.012 |
| GAATCTTGGA | 0.99 ± 0.015 |
| AGGGCTATGT | 0.9804 ± 0.005 |
| TTCAGGTTAG | 1.01 ± 0.027 |
| CGATTTGGGC | 0.982 ± 0.021 |
| TAGAGGGT | 0.9989 ± 0.0016 |
| GAGAATTGTA | 0.97 ± 0.03 |
| AAGTATATGT | 0.998 ± 0.027 |
| ATTAGTCAAT | 1.0167 ± 0.0006 |
| GGACACCGGG | 1.04 ± 0.015 |
| TTTTAACCCC | 1.26 ± 0.19 |
| CGCGACTAAA | 0.9951 ± 0.0066 |
| GCATGGCACC | 1.01 ± 0.025 |
| TTTTGGTTTT | 1 ± 0.039 |
| ATGGGGGGCT | 0.987 ± 0.028 |
